Measured values published in patent US20250243243A1, “DISRUPTION OF SONIC HEDGEHOG-SURF4 INTERACTION FOR CANCER TREATMENT” (The Hong Kong University of Science and Technology, priority 2022, published 2025).

Experiments:
GST-SURF4^49-60 = target: T1, GST-SURF4^49-60 (Homo sapiens, UniProt O15260); test: Peptide binding assay: peptides immobilized on thiopyridone sepharose 6B beads, GST-SURF4^49-60 as prey, immunoblot; conditions: pull down, immunoblotting with anti-GST antibodies
T1 construct: N-terminal GST-tagged SURF4^49-60; made in house; host or cells: E. coli
Protocol: (§1) Immunoprecipitation was performed as described (27). Purification of GST-tagged ShhN^25-49 and GST-tagged […] was performed as described previously (54). GST pull down assays were performed as described previously (54). Peptide binding assay was performed as described previously (27).
(§2) Peptide binding assay was performed as described previously (59). Synthetic CW peptides ([…]; SEQ ID NO: 6), CW^MT peptides ([…]; SEQ ID NO: 9), SURF4^49-61 peptides ([…]; SEQ ID NO: 10), SURF4^49-60 peptides ([…]; SEQ ID NO: 12), or RRFR peptides ([…]; SEQ ID NO: 11) were purchased from GenScript and coupled to thiopyridone-Sepharose 6B beads (Sigma-Aldrich) via the added C-terminal cysteine residue. For binding experiments, 2 ? g purified GST-tagged SURF4^49-60 or Shh^25-49-GST was preincubated at 4° C. for 30 min in a total volume of […] HK buffer. After incubation, […] buffer containing around 5 ? l beads containing 5 nmol of peptides was added to the reaction mixture for 1 h at 4° C. The beads were washed four times with […] of HK buffer and analyzed by immunoblotting.

Shh^25-49-GST = target: T2, Shh^25-49-GST (Mus musculus, UniProt Q62226); test: Peptide binding assay: immobilized SURF4 luminal peptides, Shh^25-49-GST as prey, immunoblot; design: species or system human; conditions: pull down, immunoblotting with anti-GST antibodies
T2 construct: C-terminal GST-tagged Shh^25-49; made in house; host or cells: E. coli
T2 sequence (Q62226 25-49): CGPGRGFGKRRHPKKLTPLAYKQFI
Protocol: as §1, §2

GST = target: T3, GST (Schistosoma japonicum, UniProt P08515); test: Peptide binding assay: immobilized peptides, GST as prey, immunoblot; conditions: pull down, GST control prey
T3 construct: made in house; host or cells: E. coli
T3 sequence (P08515 whole entry): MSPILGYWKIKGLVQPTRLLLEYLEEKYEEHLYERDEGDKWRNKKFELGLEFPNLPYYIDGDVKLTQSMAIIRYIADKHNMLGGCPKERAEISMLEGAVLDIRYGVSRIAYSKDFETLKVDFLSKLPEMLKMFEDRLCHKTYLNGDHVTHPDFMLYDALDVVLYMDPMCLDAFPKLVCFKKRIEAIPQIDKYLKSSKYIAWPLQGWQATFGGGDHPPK
Protocol: as §1, §2

[1] = target: T4, interaction between ShhN and SURF4 (Mus musculus, UniProt Q62226); test: GST pull down of SURF4-HA from HEK293T lysates by ShhN^25-49-GST in the presence of heparin; type: binding, human
T4 construct: Purified GST-tagged human ShhN^25-49 was incubated with lysates; made in house; host or cells: ShhN25-49-GST from E. coli; SURF4-HA in lysates of transfected HEK293T cells
Protocol: as §1
Purification of GST-tagged ShhN^25-49 and GST-tagged SURF4^49-60 was performed as described previously (58). GST pull down assays were carried out with 10 μl of compact GSH beads bearing around 5 ? g of GST-tagged ShhN^25-49. The beads were incubated with […] of 0.5 mg/ml of cell lysates from HEK293T cells transfected with HA-SURF4 in HKT buffer at pH 6.0 or 7.2 with mixing at 4° C. overnight. After incubation, the beads were washed three times with […] of HKT buffer and twice with […] of HK buffer, and the bound material was analyzed by immunoblotting.

CW(KR-AA) peptides: Alanine substituted mutant of the CW peptide, AAAHPAAC (SEQ ID NO: 9)
level of GST-SURF4^49-60 bound to immobilized peptides (GST-SURF4^49-60): bound more efficiently to the wild-type CW sequence than an alanine substituted mutant

RRFR peptides: Peptides corresponding to the first intracellular loop of Frizzled6, VRRFRYPERPC (SEQ ID NO: 11)
level of GST-SURF4^49-60 bound to immobilized peptides (GST-SURF4^49-60): significantly lower than that bound to the CW peptides

SURF4 luminal peptides: First luminal loop of SURF4, SEQRDYIDTTWNC (SEQ ID NO: 10)
interaction of Shh^25-49-GST with immobilized SURF4 luminal peptides (Shh^25-49-GST): interacts
binding of GST to immobilized peptides (GST): not GST interacts

heparin
inhibition of the interaction between ShhN and SURF4 ([1]; indicated concentrations of heparin): inhibited the interaction between ShhN and SURF4 in a concentration-dependent manner
inhibition of the ShhN-SURF4 interaction at pH 6.0 ([1]; pH 6.0): still inhibits the ShhN-SURF4 interaction
